Target: T1, human Islet Amyloid Polypeptide (human)
T1 peptide: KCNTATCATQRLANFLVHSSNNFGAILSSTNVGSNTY
Test: cell-based or functional assay

KCNTATCVTQRLANFLLRSSNNLGAILSPTNVGSNTY [raccoon IAPP] was tested. Which “cell viability of RIN-m cells (MTT viability assay)” value (“cell viability of RIN-m cells” below) did it give?
The value was 72 % cell viability.

Which “cell viability of RIN-m cells” value does the source give for KCNTATCATQRLANFLVRSSNNLGAILSPTNVGSNTY [seal IAPP] here?
The value was about 62 % cell viability.

How did the “cell viability of RIN-m cells” value turn out when KCNTATCATQRLANFLIRSSNNLGAILSPTNVGSNTY [cat IAPP] was run?
The value was about 62 % cell viability.

How did the “cell viability of RIN-m cells” value turn out when KCNTATCVTQRLADFLVRSSSNIGAIYSPTNVGSNTY [chicken IAPP] was run?
The value was 76 % cell viability.
